Assay [1] concerns the target T1, P1R-DelNt (truncated human P1R deleted for residues 24-181) (human, UniProt Q03431 182-593).
T1 sequence (looked up): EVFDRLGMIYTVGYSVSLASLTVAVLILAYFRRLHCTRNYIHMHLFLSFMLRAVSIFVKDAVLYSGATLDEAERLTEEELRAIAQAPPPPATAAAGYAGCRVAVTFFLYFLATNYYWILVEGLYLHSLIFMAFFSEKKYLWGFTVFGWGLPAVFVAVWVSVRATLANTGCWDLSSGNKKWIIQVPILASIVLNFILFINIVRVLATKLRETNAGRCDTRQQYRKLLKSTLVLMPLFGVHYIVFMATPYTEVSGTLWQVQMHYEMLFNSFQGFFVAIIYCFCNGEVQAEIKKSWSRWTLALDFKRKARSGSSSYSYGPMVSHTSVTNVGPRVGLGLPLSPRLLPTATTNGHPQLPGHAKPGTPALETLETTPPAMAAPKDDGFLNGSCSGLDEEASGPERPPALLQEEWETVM
The assay is described as follows: cell-based or functional assay.

In assay [2] the target is T2, PTH/PTHrP receptor (P1R), wild-type, full-length (human, UniProt Q03431 27-593).
T2 sequence (looked up): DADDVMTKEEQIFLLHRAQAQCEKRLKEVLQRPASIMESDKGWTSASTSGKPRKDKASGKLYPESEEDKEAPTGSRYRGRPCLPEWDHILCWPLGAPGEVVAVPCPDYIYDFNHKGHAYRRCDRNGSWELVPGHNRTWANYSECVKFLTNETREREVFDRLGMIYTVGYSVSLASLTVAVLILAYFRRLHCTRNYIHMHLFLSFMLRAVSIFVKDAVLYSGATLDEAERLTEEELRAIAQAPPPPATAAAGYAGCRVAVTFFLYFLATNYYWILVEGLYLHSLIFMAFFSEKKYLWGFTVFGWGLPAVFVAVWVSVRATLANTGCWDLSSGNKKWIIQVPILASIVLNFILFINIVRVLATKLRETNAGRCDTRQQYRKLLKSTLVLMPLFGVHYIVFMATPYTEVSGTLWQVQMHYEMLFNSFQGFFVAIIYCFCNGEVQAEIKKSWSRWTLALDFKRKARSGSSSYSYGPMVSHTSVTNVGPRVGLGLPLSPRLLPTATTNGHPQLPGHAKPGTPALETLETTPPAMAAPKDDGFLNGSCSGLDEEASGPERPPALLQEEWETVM
The assay is described as follows: cell-based or functional assay.

Assay [3] has as its target T1, P1R-DelNt (truncated human P1R deleted …). The assay is described as follows: cell-based or functional assay. This is another data set of the same source.
The target of assay [4] is T2, PTH/PTHrP receptor (P1R), wild-type, …. The assay is described as follows: cell-based or functional assay. The source holds these as a separate data set.
The target is the same in assay [5]. The assay is described as follows: cell-based or functional assay. This is another data set of the same source.
In assay [6] the target is T1, P1R-DelNt (truncated human P1R deleted …). The assay is described as follows: cell-based or functional assay. The source holds these as a separate data set.
The target in assay [7] is T2, PTH/PTHrP receptor (P1R), wild-type, …. The assay is described as follows: cell-based or functional assay. The source holds these as a separate data set.
The target is the same in assay [8]. The assay is described as follows: competition with 125I-[Ala3,12,Gln10,Har11,Trp14,Arg19,Tyr21]PTH(1-21)-amide tracer on HKRK-B28 cells expressing P1R. As for the experimental part: Competition Binding. Binding reactions were performed with […] cells or in COS-7 cells in 24-well plates. The cells were rinsed with 0.5 mL of binding buffer, and then treated successively with 100 μL binding buffer, 100 μL of binding buffer containing various amounts of unlabeled competitor ligand, and 100 μL of binding buffer containing ca. 100,000 cpm of ¹²⁵I-[M]PTH(1-21)(SEQ. ID. NO. 16) or ¹²⁵I-[Aib^{1,3},M]PTH(1-21)(SEQ. ID. NO. 17) (ca. 26 fmol; final volume=300 μL). Incubations were 4 to 6 h at 4° C., at which time near equilibrium conditions were attained. Cells were then placed on ice, the binding medium was removed, and the monolayer was rinsed three times with 0.5 mL of cold binding buffer. The cells were subsequently lysed with 0.5 mL 5N NaOH and counted for radioactivity. For each tracer and in each experiment, the non-specific binding was determined as the radioactivity that bound in the presence of the same unlabeled peptide at a concentration of 1 μM, and was ˜1% of total radioactivity added for each tracer. The maximum specific binding (B₀) was the total radioactivity bound in the absence of competing ligand, corrected for nonspecific binding, and for each tracer, ranged from 8% to 20% of the total radioactivity added. Nonlinear regression was used to calculate binding IC₅₀ values (see below). Scatchard transformations of homologous competition binding data derived from studies with 26 fmol of ¹²⁵I-[Aib^{1,3},M]PTH(1-21) (SEQ. ID. NO. 17) were employed for estimations of apparent equilibrium dissociation constant (kDapps) and total number of ligand binding sites (Bₘₐₓ), assuming a single class of binding sites and equal affinities of the iodinated and non iodinated ligand.
The peptide PTH(1-34) ([Tyr³⁴]bPTH(1-34)NH₂) (SEQ. ID. NO. 10) and analogs containing substitutions at positions 6 and/or 10 in place of Gln and Asn, respectively, were evaluated in HKRK-B28 cells for the capacity to stimulate cAMP accumulation, and to inhibit the binding of ¹²⁵I-[Ala^{3,12}, Gln¹⁰, Har¹¹, Trp¹⁴,Arg¹⁹, Tyr²¹]PTH(1-21)-amide (SEQ. ID. NO. 30) tracer radioligand.

For assay [9] the target is unchanged. The assay is described as follows: cell-based or functional assay. This is another data set of the same source.

Read-outs that look alike come from different tables or passages of the source. Positions of bridges follow the written chain, without caps; N, C: chain ends. Non-standard residues stand in square brackets, D forms with d. No end group written: not given here. hArg = N=C(N)NCCCC[C@H](N)C(=O)O; Aib = CC(C)(N)C(=O)O Where only a bound is given, the exact number is not on record here.

Take AVAEIQLMHQR-NH2 [PTH(1-11) (AlaValAlaGluIleGlnLeuMetHisGlnArg-amide)]: the figures for the “fold increase in cAMP formation” value in assay [1] and in assay [2] were 55 fold and 75 fold, respectively. In addition, the “cAMP EC50” value in [3] was 14 µM; in assay [4], 5 µM. For the same molecule, the “cAMP Emax (%)” value in assay [3] and in assay [4] was 100% each time.

As to AVAEIALMHAR-NH2 [[Ala^6, Ala^10]PTH(1-11)], in assay [3], the “cAMP EC50” value stood at 170 µM and the “cAMP Emax (%)” value was 42%. Moreover, in [4], the “cAMP EC50” value stood at 160 µM and the “cAMP Emax (%)” value turned out to be 41%.

B1: PTH(1-34) ([Tyr^34]hPTH(1-34)amide) (peptide)
peptide: SVSEIQLMHNLGKHLNSMERVEWLRKKLQDVHNY-NH2
notes: Human PTH(1-34) analog with Tyr at 34; also called [Tyr^34]hPTH(1-34)NH2; PTH(1-34) scaffold peptide
One may read the IC50 as the concentration needed to halve the response being measured. Consider B1, for which the entries for the “cAMP EC50” value in [5] and in assay [7] were 1.9 µM and 0.27 µM, respectively. Besides, the “cAMP Emax (%)” value in [5] was 100%; in [6] it was 44%; in assay [7] it was 100%. In [8], this molecule showed a 50% inhibitory concentration (IC50) of 6 µM.

B2: [Ala^6]PTH(1-34) (peptide)
peptide: SVSEIALMHNLGKHLNSMERVEWLRKKLQDVHNY-NH2
notes: Gln6->Ala analog of [Tyr^34]hPTH(1-34)amide
On to B2, for which the results for the “cAMP EC50” value in assay [5], in assay [6] and in [7] were 4.9 µM, greater than 100 µM and 0.17 µM, respectively. Also, the “cAMP Emax (%)” value in assay [5] stood at 105%; in assay [6] it was 4.5%; in [7] it was 104%. Besides, the IC50 in assay [8] turned out to be 4.5 µM.

For the molecule SVSEIQLMHALGKHLNSMERVEWLRKKLQDVHNY-NH2 [[Ala^10]PTH(1-34)], the “cAMP EC50” value came out at 3 µM in [5], 14 µM in [6] and 0.27 µM in assay [7]. The “cAMP Emax (%)” value in assay [5] came to 106%; in assay [6], 46%; in [7], 96%. The molecule further yielded a concentration for half-maximal inhibition (IC50) in assay [8] of 6.4 µM.

B3: [Ala^6,10]PTH(1-34) (peptide)
peptide: SVSEIALMHALGKHLNSMERVEWLRKKLQDVHNY-NH2
notes: Double Ala analog of [Tyr^34]hPTH(1-34)amide
B3: the entries for the “cAMP EC50” value in assay [5], in assay [6] and in assay [7] were 2.2 µM, 19 µM and 0.3 µM, respectively. Besides, the “cAMP Emax (%)” value amounted to 107% in assay [5], 44% in assay [6] and 121% in assay [7]. In assay [8], this molecule returned an IC50 of 3.9 µM.

B4: [Aib^1,3]PTH(1-14) (AibValAibGluIleGlnLeuMetHisGlnHarAlaLysTrp-amide) (peptide)
peptide: [Aib]V[Aib]EIQLMHQ[hArg]AKW-NH2
modifications: N-terminus assumed
SMILES: CC[C@H](C)[C@H](NC(=O)[C@H](CCC(=O)O)NC(=O)C(C)(C)NC(=O)[C@@H](NC(=O)C(C)(C)N)C(C)C)C(=O)N[C@@H](CCC(N)=O)C(=O)N[C@@H](CC(C)C)C(=O)N[C@@H](CCSC)C(=O)N[C@@H](Cc1c[nH]cn1)C(=O)N[C@@H](CCC(N)=O)C(=O)N[C@@H](CCCCNC(=N)N)C(=O)N[C@@H](C)C(=O)N[C@@H](CCCCN)C(=O)N[C@@H](Cc1c[nH]c2ccccc12)C(N)=O
As for B4, the “fold increase in cAMP accumulation” value in [1] was determined as 50 fold. In [3], the “cAMP EC50” value worked out at 0.0066 µM and the “cAMP Emax (%)” value came to 100%.

B5: [(Lys^6, Glu^10)lac.]PTH(1-14) (peptide)
peptide: AVAEIKLMHE[hArg]AKW-NH2
modifications: lactam 6-10; N-terminus assumed
SMILES: CC[C@H](C)[C@H](NC(=O)[C@H](CCC(=O)O)NC(=O)[C@H](C)NC(=O)[C@@H](NC(=O)[C@H](C)N)C(C)C)C(=O)N[C@H]1CCCCNC(=O)CC[C@@H](C(=O)N[C@@H](CCCCNC(=N)N)C(=O)N[C@@H](C)C(=O)N[C@@H](CCCCN)C(=O)N[C@@H](Cc2c[nH]c3ccccc23)C(N)=O)NC(=O)[C@H](Cc2c[nH]cn2)NC(=O)[C@H](CCSC)NC(=O)[C@H](CC(C)C)NC1=O
Turning to B5, the “cAMP potency relative to linear [Lys^6, Glu^10]PTH(1-14)” value in assay [2] is 6 fold. Further, in assay [9], the “cAMP EC50” value was 21 µM and the “cAMP Emax (%)” value stood at 59%.

For AVAEIQLMHAR-NH2 [[Ala^10]PTH(1-11)], in assay [3], the “cAMP EC50” value was found to be 39 µM and the “cAMP Emax (%)” value was determined as 79%. For the same molecule, in [4], the “cAMP EC50” value was 11 µM and the “cAMP Emax (%)” value was found to be 88%.

With AVAEIALMHQR-NH2 [[Ala^6]PTH(1-11)], the “cAMP EC50” value stood at 320 µM in [3] and 330 µM in assay [4]. In addition, the “cAMP Emax (%)” value stood at 14% in assay [3] and 26% in assay [4].

B6: [Lys^6, Glu^10]PTH(1-14) (peptide)
peptide: AVAEIKLMHE[hArg]AKW-NH2
modifications: N-terminus assumed
SMILES: CC[C@H](C)[C@H](NC(=O)[C@H](CCC(=O)O)NC(=O)[C@H](C)NC(=O)[C@@H](NC(=O)[C@H](C)N)C(C)C)C(=O)N[C@@H](CCCCN)C(=O)N[C@@H](CC(C)C)C(=O)N[C@@H](CCSC)C(=O)N[C@@H](Cc1c[nH]cn1)C(=O)N[C@@H](CCC(=O)O)C(=O)N[C@@H](CCCCNC(=N)N)C(=O)N[C@@H](C)C(=O)N[C@@H](CCCCN)C(=O)N[C@@H](Cc1c[nH]c2ccccc12)C(N)=O
Consider B6, for which, in [9], the “cAMP EC50” value worked out at 130 µM and the “cAMP Emax (%)” value was 37%.

Values taken from patent US20060229240A1 (GARDELL ET AL, published 2006).
